Assay results reported in US8415106B2, “Cell-based screen for agents useful for reducing neuronal demyelination or promoting neuronal remyelination” (Myelin Repair Foundation, Inc., priority 2005, dated 2013).
Several values for one entry are separate records, joined by “and”; a condition that tells them apart may be missing. Equal values may be shown once.

How the values were obtained:
rat oligodendrocytes = assay: IFN-γ-induced apoptosis in cultured rat oligodendrocytes (TUNEL/CNP, caspase-3 activity); type: cell-based
Description: To test whether apoptosis of oligodendrocytes that is induced by INF-γ affects ER stress, the effect on the morphology, the degree of apoptosis and the expression of ER markers was studied in a culture of oligodendrocyte precursor cells (OPC). Oligodendrocyte progenitors were cultured from neonatal rat brains (Baerwald, et al. (1998) J. Neurosci. Res. 52: 230-239). A mixed glial culture was grown in flasks in medium containing 10% fetal bovine serum (FBS), and when the astrocyte layer became confluent (10-14 days), oligodendrocyte progenitors were separated from astrocytes and microglia using an orbital shaker. Cells, greater than 95% of which were A2B5 positive, GFAP negative and CD11b negative, were cultured in 0.5% FBS containing medium, which also contained PDGF (10 ng/ml) and FGF (5 ng/ml) (both from R&D Systems, Minneapolis, Minn.). Then cells were switched to 0.5% FBS medium without PDGF and FGF for differentiation. […]
The level of apoptosis of the OPC cells was determined by double staining CNP (1:200; Sternberger Monoclonals, Lutherville, Md.) and TUNEL using the ApopTag Kit (Serologicals Corp., Norcross, Calif.) and following the manufacturer's instructions. Apoptosis was also evaluated by measuring the activity of caspase-3 in oligodendrocyte lysates using the Fluorimetric Caspase 3 Assay Kit (Sigma, St. Louis, Mo.), according to the manufacturer's instructions.

[1] = system: developing oligodendrocytes and myelin; assay: IFN-γ-overexpressing mice crossed to PLP/SOCS1 mice: tremor, oligodendrocyte density, G ratio, unmyelinated axons at postnatal day 21; type: in vivo; settings: for Incidence of tremor: 172 × PLP/SOCS1 system
Source text: The transgenic mice MBP/IFN-γ and GFAP/tTA×TRE/IFN-γ (lines 184/110 and 184/67) that overexpress IFN-γ in the CNS have been described elsewhere (Corbin et al., 1996; Gao et al., 2000; Lin et al., 2004, 2005). Briefly, MBP/IFN-γ mice are transgenic animals in which IFN-γ expression is driven by the myelin basic protein (MBP) transcriptional control region (Gao et al., 2000). GFAP/tTA×TRE/IFN-γ are double-transgenic mice obtained by mating single-transgenic GFAP/tTA to single-transgenic TRE/IFN-γ (lines 110 and 67) mice. The two TRE/IFN-γ mouse lines, line 110 and line 67, used in the experiments produce different amounts of IFN-γ when crossed to GFAP/tTA mice (184/110 and 184/67) (Lin et al., 2004, 2005). GFAP/tTA×TRE/IFN-γ is a tetracycline-off-inducible system in which the glial fibrilary acidic protein (GFAP) transcriptional control region drives the expression of tTA, which in turn, binds to the TRE (tet responsive element) and initiates the expression of IFN-γ. Administration of doxycycline suppresses tTA DNA binding and IFN-γ expression, and doxycycline removal allows for temporally-controlled induction of IFN-γ expression (Gao et al., 1999).
IFN-γ-overexpressing mice were crossed to the PLP/SOCS1 mice in double-transgenic, (MBP/IFN-γ×PLP/SOCS1) and triple-transgenic (GFAP/tTA×TRE/IFN-γ×PLP/SOCS1) mating systems. MBP/IFN-γ×PLP/SOCS1 (172×PLP/SOCS1) mating was performed according to a standard mating protocol. The GFAP/tTA×TRE/IFN-γ×PLP/SOCS1 matings were performed in a 2-step mating process: GFAP/tTA mice were initially crossed to PLP/SOCS1 mice, and double-positive (184×PLP/SOCS1) offspring were then crossed to the TRE/IFN-γ lines 110 and 67, separately. This second mating step was performed according to the previously described “tet-off” protocol. Doxycycline 0.05 mg/ml (Sigma-Aldich) was added to the water of impregnated female mice until embryonic day 14, after which the animals were switched back to normal water, thereby allowing initiation of IFN-γ transcription, which peaks during the postnatal period (Lin et al., 2005).
The litters of the mating systems (F1 generation) were examined daily and sacrificed at postnatal day 21. Clinical evaluation included behavioral observation and challenged ladder walking to elicit tremor. Histological examination included quantitation of the number and density of oligodendrocytes and examination of the myelination patterns. Brain tissue was simultaneously obtained from each animal at the time of sacrifice to verify and measure the expression of IFN-γ and Flag-SOCS1 (see below). The clinical and histological findings were subsequently stratified according to genotype. All animal procedures were conducted in compliance with the National Institutes of Health Guide for Care and Use of Laboratory Animals and were approved by the Institutional Animal Care and Use Committee at The University of Chicago.
Oligodendrocyte cell density was assessed digitally using Axiovision software, at postnatal day 21, as previously described (Lin et al., 2005). The brains were sectioned sagittally through the corpus callosum dividing the brain in two symmetrical halves. Ten frozen sections from each half were prepared at 7 μm thickness, and numbered in the sequence of their preparation. The brains of three animals per study group were prepared in this fashion. Following the CC1 immunostaining the corresponding area of corpus callosum of each section was digitally selected and the corresponding total area obtained. CC1 cell counting was performed manually within the selected areas of each section, and the number of CC1 positive cells per square area (mm^2) calculated. The results were presented as mean±SD of CC1 (+) cells/mm^2 with n=3 animals per study group. […]

mice with EAE = assay: MOG 35-55-induced EAE, CNS delivery of INF-γ at EAE onset (PERK+/+ double or PERK+/− triple mice); type: in vivo; settings: for Mean of maximum clinical score (mean ± S.D.): 0-5 point scale; for Mean of maximum clinical score (mean ± S.D.) / Day of onset of disease (PID: postimmunization day): n = 25
[2] = 184/67×PLP/SOCS1 mice (IFN-γ and SOCS1)
[3] = 184/110×PLP/SOCS1 mice (IFN-γ and SOCS1)

B1: IFN-γ: pleotropic cytokine secreted by activated T lymphocytes and natural killer cells; recombinant rat IFN-γ added to cultures or transgenically expressed in mouse CNS (protein, UniProt P01581 23-156, looked up)
Interferon gamma: QGTLIESLESLKNYFNSSSMDAMEGKSLLLDIWRNWQKDGNTKILESQIISFYLRLFEVLKDNQAISNNISVIESHLITNFFSNSKAKKDAFMSIAKFEVNNPQIQHKAVNELIRVIHQLSPESSLRKRKRSRC
B1 was tested, and the “caspase-3 activity in the cell lysates” value (rat oligodendrocytes; 70 U/ml IFN-γ) was “markedly increased”, the “TUNEL and CNP double labeling (apoptosis)” value (rat oligodendrocytes; 70 U/ml IFN-γ for 48 h, oligodendrocytes differentiated 5 days) was “induced apoptosis in a significant number of oligodendrocytes” and the Incidence of tremor ([1]; mice expressing IFN-γ only) was 0%. For the same molecule, the Incidence of tremor ([1]; mice expressing both IFN-γ and SOCS1) was 0%, the “G ratio (axon diameter/fiber diameter ratio)” value ([1]; 184/67 mice (IFN-γ only)) was 0.95±0.04 and the “percentage of unmyelinated axons” value ([1]; 184/67 mice (IFN-γ only)) was 57%±7. The oligodendrocytes lost ([1]; 184/67 mice (IFN-γ only) versus wild-type) was “approximately 40%”, the oligodendrocyte density ([1]; 184/67 mice (IFN-γ only), wild-type 144±5) was 79±9 CC1 (+) cells/mm^2 and the “G ratio (axon diameter/fiber diameter ratio)” value [1, 2] was 0.82±0.08. The “percentage of unmyelinated axons” value [1, 2] was 17%±4.5, the oligodendrocytes lost ([1]; 184/67×PLP/SOCS1 mice (IFN-γ and SOCS1) versus PLP/SOCS1) was “approximately 15%” and the oligodendrocyte density ([1]; 184/67×PLP/SOCS1 mice (IFN-γ and SOCS1), PLP/SOCS1 142±5) was 112±7 CC1 (+) cells/mm^2. The “percentage of unmyelinated axons” value ([1]; 184/110 mice (IFN-γ only)) was 41%±6, the oligodendrocytes lost ([1]; 184/110 mice (IFN-γ only) versus wild-type) was “approximately 20%” and the “G ratio (axon diameter/fiber diameter ratio)” value ([1]; 184/110 mice (IFN-γ only), hypomyelination defined as G ratio >0.8) was 0.89±0.02. For the same molecule, the oligodendrocyte density ([1]; 184/110 mice (IFN-γ only), wild-type 146±6) was 115±8 CC1 (+) cells/mm^2, the “G ratio (axon diameter/fiber diameter ratio)” value [1, 3] was 0.75±0.03 and the “percentage of unmyelinated axons” value [1, 3] was 13%±3. The oligodendrocytes lost ([1]; 184/110×PLP/SOCS1 mice (IFN-γ and SOCS1) versus PLP/SOCS1) was “approximately 8%”, the oligodendrocyte density ([1]; 184/110×PLP/SOCS1 mice (IFN-γ and SOCS1), PLP/SOCS1 141±6) was 129±6 CC1 (+) cells/mm^2 and the “percentage of unmyelinated axons” value ([1]; MBP/IFN-γ×PLP/SOCS1 (172×PLP/SOCS1) littermates, regardless of genotype) was “less than 9%”. The Incidence of death (mice with EAE; DOX− double mice (PERK+/+)) was 0/25, the “Mean of maximum clinical score (mean ± S.D.)” value (mice with EAE; DOX− double mice (PERK+/+)) was 1.63 ± 0.51 and the “Day of onset of disease (PID: postimmunization day)” value (mice with EAE; DOX− double mice (PERK+/+)) was 14.7 ± 1.4. For the same molecule, the “Incidence of hind limb paralysis” value (mice with EAE; DOX− double mice (PERK+/+), listed as INF-γ) was 2 of 25 and 2/25, the “MBP mRNA level in the spinal cord versus age-matched naive mice” value (mice with EAE; DOX− double mice, PID17, DOX+ double mice decreased by 30%) was “not significantly decreased” and the Incidence of death (mice with EAE; DOX− triple mice (PERK+/−)) was 3/25. For the same molecule, the “Incidence of hind limb paralysis” value (mice with EAE; DOX− triple mice (PERK+/−)) was 18/25, the “Mean of maximum clinical score (mean ± S.D.)” value (mice with EAE; DOX− triple mice (PERK+/−)) was 2.71 ± 1.11 and the “Day of onset of disease (PID: postimmunization day)” value (mice with EAE; DOX− triple mice (PERK+/−)) was 13.6 ± 0.8.
